In assay [1] the target is recombinant C-terminal ApoE fragment G200-HIS (ApoE-G200-H299-10xHIS) (human) (UniProt P02649). The assay is described as follows: direct ELISA, target coated at 1 ug/ml, antibody in 3-fold dilutions from 500 ng/ml, OD 450 nm. Background: In an ELISA, binding on a coated surface is turned into a signal by an enzyme label.
Assay [2] has as its target His-tagged recombinant full-length ApoE4, 10xHIS-ApoE4(1-299) (human) (UniProt P02649). The description is as above.
Assay [3] concerns the target recombinant full-length ApoE4 (aa 1-299; SEQ ID NO:45; Abcam cat. no. ab50243) (human) (UniProt P02649). As to the kind of experiment: direct ELISA, second protocol; proteins coated at 0.1 uM, BSA peptides at 1 ug/ml; antibody in 3-fold dilutions from 3000 ng/ml; blank reduced OD 450 nm.
The target in assay [4] is recombinant C-terminal ApoE fragment G200-HIS (ApoE-G200-H299-10xHIS) (human) (UniProt P02649). The assay is described as above.
The target in assay [5] is recombinant full-length ApoE4 (aa 1-299; SEQ ID NO:45; Abcam cat. no. ab50243) (human) (UniProt P02649). The assay is described as follows: direct ELISA; proteins coated at 0.1 uM, BSA peptides at 1 ug/ml; antibody in 3-fold dilutions from 3000 ng/ml; blank reduced OD 450 nm.
Chain of recombinant full-length ApoE4 (aa 1-299; SEQ ID NO:45; Abcam cat. no. ab50243) (human) (P02649 19-317 C130R limits assumed): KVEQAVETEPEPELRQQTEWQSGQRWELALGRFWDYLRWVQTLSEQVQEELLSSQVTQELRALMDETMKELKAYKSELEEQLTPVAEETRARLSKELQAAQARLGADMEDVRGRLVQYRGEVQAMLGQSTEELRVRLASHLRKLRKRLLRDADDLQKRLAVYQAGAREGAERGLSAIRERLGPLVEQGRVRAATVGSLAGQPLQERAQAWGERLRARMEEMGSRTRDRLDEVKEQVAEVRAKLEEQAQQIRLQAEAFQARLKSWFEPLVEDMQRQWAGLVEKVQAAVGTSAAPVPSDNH
Assay [6] has as its target recombinant C-terminal ApoE fragment A199-HIS (ApoE-A199-H299-10xHIS) (human) (UniProt P02649). The description is as above.
The target in assay [7] is recombinant full-length ApoE4 (aa 1-299; SEQ ID NO:45; Abcam cat. no. ab50243) (human) (UniProt P02649). The assay is described as above. The source holds these as a separate data set.
Assay [8] deals with recombinant C-terminal ApoE fragment L198-HIS (ApoE-L198-H299-10xHIS) (human) (UniProt P02649). The assay is described as above.
Chain of recombinant C-terminal ApoE fragment L198-HIS (ApoE-L198-H299-10xHIS) (human) (P02649 other isoform, or with tags, fused parts or gaps limits assumed): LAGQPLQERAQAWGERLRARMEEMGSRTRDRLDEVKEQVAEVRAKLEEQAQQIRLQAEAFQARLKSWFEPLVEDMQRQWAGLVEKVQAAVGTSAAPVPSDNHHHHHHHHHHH
Assay [9] addresses recombinant full-length ApoE4 (aa 1-299; SEQ ID NO:45; Abcam cat. no. ab50243) (human) (UniProt P02649). The assay is described as follows: direct ELISA, target coated at 1 ug/ml, reference antibody in 3-fold dilutions from 1000 ng/ml, OD 450 nm.
For assay [10], the target named is recombinant C-terminal ApoE fragment G200-HIS (ApoE-G200-H299-10xHIS) (human) (UniProt P02649). The assay is described as above.

EC50 (read off the curve) data for one substance are collected here from patent US20220242939A1.

Chain of recombinant C-terminal ApoE fragment G200-HIS (ApoE-G200-H299-10xHIS) (human) (P02649 other isoform, or with tags, fused parts or gaps limits assumed): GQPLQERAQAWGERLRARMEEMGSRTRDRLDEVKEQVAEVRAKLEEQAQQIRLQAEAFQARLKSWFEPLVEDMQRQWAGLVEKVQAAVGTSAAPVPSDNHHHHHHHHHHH
Chain of His-tagged recombinant full-length ApoE4, 10xHIS-ApoE4(1-299) (human) (P02649 other isoform, or with tags, fused parts or gaps limits assumed): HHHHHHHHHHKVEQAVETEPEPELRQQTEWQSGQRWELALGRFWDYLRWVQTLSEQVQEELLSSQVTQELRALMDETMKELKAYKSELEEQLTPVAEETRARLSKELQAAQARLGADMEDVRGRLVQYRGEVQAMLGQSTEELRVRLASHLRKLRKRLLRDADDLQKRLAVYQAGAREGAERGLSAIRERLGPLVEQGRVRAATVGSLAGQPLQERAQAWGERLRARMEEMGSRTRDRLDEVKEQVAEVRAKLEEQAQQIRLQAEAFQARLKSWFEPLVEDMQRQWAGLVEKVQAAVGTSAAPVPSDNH
Chain of recombinant C-terminal ApoE fragment A199-HIS (ApoE-A199-H299-10xHIS) (human) (P02649 other isoform, or with tags, fused parts or gaps limits assumed): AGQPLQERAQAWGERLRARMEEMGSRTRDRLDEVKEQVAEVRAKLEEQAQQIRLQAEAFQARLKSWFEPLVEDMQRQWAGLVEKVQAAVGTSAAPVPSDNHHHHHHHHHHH

Regarding “reference anti-ApoE C-terminal antibody ApoE E-8 mouse monoclonal (Santa Cruz Biotechnology, cat. no. sc-393302)”, the EC50 (read off the curve) in [1] was 4 ng/mL; in [2] it was 4 ng/mL; in [3], 4 ng/mL; in assay [4], 4 ng/mL; in assay [5], 6 ng/mL; in assay [6], 5 ng/mL. For the same substance, the EC50 (read off the curve) in assay [7] is 8 ng/mL; in assay [8], 2 ng/mL; in [9], 4 ng/mL; in assay [10], 5 ng/mL.

By EC50 (read off the curve) is commonly meant the concentration at which the effect is half-maximal.
